Patent US20190049459A1 (TOKYO INSTITUTE OF TECHNOLOGY, published 2019)

Legend:
DNA-PKcs = molecular target: T1, DNA-PKcs (human, UniProt P78527 1-4128); test: anti-FLAG immunoprecipitation from HEK 293 T lysate, SDS-PAGE; band identified by mass spectrometry (Table 1)
T1 construct: Endogenous protein co-precipitated from HEK 293 T lysate and identified by mass spectrometry; also called DNK-PKcs; PRKDC

BIP = molecular target: T2, BIP (human, UniProt P11021 19-654); test: as above
T2 construct: Endogenous protein co-precipitated from HEK 293 T lysate; also called GRP78

ANT2-HA = molecular target: T3, ANT2-HA (human, UniProt P05141 1-298); test: co-expression of ANT2-HA and FLAG-tagged uORF44 in HEK 293 T cells, immunoprecipitation by one tag, western blot by the other tag
T3 construct: Co-expressed with FLAG-tagged uORF44 in HEK 293 T cells; not shown: HA tag fused to the subtype
T3 sequence (looked up): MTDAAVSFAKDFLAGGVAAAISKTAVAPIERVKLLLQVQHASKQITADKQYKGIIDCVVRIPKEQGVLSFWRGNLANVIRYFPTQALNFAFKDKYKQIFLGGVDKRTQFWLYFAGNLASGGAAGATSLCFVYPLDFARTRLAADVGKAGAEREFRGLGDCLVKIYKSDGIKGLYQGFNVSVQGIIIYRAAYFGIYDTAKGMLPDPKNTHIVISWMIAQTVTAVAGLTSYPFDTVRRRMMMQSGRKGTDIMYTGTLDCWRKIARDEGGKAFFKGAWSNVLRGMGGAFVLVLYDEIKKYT
Experimental: The expression vector was transfected into HEK 293 T cells cultured in a 10 cm culture dish using Opt-MEM (Life Technologies) and FuGENE-HD (Promega). After 48 hours of transfection, the cells were washed with PBS and dissolved using 1 mL of lysis buffer (20 m Tris-HCl pH 7.5, 150 mM NaCl, 0.5% NP 40, 1×Complete EDTA free (Roche) 10 mM Glycerol 2-phosphate, 1 mM NaVO4) and allowed to stand on ice for 20 minutes. Thereafter, the cells were centrifuged at 4° C., 21,130×g for 30 minutes, and the supernatant was used for immunoprecipitation. 50 μL of anti-[…] antibody beads (Wako, 016-22784) or 50 μL of Monoclonal Anti-HA-Agarose (Sigma, A 2095) was used in the immunoprecipitation. The supernatant was mixed with antibody beads lysate, and slowly mixed at 4° C. for 1 hour. After completion of the antigen-antibody reaction, it was washed 3 times with 1 mL of a lysis buffer, and then the protein was eluted with 50 μL 1×SDS sample buffer. The eluted sample was subjected to electrophoresis by SDS-PAGE followed by western blotting or SYPRO Ruby staining. The western blotting was performed as described in paragraph “(5) Western blotting.” The SYPRO Ruby staining was performed using SYPRO Ruby protein gel stain (Life Technologies, S 12000), in accordance with a product manual. […]

Measured: binding result

T2 sequence (P11021 19-654 limits assumed): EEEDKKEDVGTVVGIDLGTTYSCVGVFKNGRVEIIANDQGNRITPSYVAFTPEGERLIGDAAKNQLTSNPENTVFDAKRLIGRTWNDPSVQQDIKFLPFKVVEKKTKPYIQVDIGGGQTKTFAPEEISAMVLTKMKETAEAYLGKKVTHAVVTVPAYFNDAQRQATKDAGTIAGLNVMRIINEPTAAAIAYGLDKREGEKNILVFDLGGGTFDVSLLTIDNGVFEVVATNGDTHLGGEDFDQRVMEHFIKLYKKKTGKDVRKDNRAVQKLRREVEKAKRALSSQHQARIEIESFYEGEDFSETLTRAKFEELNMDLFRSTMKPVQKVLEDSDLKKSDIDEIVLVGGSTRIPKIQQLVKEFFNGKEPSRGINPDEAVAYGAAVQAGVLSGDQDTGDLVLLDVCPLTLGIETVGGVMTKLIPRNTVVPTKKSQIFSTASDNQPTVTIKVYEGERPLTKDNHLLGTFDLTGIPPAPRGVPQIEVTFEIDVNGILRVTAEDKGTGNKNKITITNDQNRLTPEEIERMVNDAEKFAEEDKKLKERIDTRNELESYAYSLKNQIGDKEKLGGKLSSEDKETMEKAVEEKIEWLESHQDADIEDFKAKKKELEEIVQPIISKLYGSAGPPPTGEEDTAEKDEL
T1 sequence (P78527 whole entry): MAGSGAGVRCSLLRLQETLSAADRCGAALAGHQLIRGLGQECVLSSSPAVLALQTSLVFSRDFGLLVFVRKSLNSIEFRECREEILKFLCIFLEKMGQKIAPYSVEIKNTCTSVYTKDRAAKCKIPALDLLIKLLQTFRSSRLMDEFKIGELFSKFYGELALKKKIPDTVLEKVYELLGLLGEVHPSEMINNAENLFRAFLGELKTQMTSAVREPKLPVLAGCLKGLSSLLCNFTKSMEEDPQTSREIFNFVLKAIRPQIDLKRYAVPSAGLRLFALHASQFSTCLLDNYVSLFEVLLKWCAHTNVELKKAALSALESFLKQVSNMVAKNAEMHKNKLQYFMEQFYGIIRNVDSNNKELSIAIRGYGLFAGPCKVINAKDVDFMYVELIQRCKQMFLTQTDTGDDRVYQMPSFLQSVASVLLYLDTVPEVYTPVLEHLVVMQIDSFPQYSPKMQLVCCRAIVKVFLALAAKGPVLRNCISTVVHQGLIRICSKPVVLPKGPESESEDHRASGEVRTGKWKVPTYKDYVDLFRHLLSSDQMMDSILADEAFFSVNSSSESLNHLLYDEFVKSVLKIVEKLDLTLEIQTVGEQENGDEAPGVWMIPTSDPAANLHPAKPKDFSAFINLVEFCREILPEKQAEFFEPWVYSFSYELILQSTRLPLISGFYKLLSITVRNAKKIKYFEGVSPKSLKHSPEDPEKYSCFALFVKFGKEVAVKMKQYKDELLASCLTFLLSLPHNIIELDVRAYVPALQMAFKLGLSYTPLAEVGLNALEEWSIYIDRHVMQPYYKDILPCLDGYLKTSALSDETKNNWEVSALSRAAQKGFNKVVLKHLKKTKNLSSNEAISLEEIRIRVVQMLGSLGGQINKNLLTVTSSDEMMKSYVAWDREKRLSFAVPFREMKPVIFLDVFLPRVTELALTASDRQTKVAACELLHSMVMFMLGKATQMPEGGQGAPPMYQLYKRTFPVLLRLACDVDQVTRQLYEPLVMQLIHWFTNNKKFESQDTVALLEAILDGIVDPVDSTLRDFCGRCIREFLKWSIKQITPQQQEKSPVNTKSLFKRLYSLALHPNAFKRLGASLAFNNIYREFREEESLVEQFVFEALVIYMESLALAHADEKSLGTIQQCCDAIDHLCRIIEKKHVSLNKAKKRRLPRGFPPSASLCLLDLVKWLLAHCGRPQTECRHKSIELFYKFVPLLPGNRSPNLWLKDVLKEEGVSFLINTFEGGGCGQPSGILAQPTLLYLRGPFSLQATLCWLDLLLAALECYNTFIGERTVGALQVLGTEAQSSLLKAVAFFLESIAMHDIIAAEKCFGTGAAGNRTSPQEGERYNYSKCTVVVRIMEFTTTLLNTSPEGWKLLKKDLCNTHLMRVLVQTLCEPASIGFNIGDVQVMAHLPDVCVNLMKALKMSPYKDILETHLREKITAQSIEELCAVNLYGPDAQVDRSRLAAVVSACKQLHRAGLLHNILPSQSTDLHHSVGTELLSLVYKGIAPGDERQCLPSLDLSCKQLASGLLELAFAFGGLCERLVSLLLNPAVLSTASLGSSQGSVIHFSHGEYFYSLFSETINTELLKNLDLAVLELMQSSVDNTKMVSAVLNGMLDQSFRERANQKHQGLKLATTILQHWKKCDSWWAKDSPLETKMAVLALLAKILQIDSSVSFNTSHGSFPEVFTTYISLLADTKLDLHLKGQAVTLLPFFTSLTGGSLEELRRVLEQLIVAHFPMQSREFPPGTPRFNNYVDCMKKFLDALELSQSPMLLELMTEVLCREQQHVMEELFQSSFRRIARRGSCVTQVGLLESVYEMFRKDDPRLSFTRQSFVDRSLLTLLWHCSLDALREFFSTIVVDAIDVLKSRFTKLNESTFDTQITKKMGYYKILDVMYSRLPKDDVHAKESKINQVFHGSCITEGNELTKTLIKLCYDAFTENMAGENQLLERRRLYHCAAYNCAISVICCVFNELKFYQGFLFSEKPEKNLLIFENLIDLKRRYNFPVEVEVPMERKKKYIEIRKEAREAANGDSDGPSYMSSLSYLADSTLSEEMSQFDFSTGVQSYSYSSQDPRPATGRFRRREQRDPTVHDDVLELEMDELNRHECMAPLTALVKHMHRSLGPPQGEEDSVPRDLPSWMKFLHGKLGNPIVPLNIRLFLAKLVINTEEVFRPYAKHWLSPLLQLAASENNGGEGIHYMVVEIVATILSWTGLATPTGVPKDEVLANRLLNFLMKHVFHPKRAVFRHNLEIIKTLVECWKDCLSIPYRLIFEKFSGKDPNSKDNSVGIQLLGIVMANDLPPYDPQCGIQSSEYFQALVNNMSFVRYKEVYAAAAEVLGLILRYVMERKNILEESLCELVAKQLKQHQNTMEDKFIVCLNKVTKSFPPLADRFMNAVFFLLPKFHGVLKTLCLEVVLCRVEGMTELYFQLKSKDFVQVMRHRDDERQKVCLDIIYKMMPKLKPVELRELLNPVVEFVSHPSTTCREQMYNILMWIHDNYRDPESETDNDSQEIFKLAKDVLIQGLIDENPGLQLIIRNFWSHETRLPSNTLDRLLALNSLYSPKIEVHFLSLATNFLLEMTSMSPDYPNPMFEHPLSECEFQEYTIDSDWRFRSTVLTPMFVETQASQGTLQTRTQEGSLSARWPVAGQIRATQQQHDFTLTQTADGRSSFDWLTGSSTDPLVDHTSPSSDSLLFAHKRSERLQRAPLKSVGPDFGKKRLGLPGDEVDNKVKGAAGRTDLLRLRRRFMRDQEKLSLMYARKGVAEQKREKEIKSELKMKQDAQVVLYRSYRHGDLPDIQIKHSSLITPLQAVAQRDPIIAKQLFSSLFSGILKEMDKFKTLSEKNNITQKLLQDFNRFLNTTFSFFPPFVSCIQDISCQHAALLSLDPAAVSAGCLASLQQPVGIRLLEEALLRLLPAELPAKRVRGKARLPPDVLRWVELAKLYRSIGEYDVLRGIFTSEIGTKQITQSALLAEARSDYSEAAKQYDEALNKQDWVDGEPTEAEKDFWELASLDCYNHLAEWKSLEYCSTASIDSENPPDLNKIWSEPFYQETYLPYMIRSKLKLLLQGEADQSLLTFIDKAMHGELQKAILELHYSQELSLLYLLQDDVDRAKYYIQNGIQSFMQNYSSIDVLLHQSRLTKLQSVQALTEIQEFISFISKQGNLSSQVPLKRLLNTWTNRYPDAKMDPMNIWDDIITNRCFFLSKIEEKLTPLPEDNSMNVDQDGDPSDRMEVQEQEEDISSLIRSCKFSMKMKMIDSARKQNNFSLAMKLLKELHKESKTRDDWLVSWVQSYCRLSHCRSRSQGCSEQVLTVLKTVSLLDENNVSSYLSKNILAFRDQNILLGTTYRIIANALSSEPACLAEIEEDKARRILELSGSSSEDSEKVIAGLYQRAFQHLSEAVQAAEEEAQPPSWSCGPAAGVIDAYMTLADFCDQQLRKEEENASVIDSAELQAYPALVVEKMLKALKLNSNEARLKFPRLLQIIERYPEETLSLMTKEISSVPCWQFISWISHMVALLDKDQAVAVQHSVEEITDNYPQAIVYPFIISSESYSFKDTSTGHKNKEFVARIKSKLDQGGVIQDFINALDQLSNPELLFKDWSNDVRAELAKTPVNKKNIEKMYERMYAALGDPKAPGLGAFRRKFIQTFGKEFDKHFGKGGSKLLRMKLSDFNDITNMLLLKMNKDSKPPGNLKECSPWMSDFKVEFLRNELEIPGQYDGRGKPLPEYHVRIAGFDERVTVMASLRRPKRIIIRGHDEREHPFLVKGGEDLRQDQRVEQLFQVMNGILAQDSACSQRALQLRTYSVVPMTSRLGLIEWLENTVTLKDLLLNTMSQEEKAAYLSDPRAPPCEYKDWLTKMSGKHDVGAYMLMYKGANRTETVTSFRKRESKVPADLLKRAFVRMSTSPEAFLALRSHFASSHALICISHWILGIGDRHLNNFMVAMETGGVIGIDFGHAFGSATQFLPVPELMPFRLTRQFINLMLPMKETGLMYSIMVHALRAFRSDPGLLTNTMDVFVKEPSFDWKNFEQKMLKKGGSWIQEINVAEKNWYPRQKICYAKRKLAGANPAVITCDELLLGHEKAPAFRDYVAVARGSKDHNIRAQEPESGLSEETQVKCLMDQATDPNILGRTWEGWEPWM

B1: FLAG-tagged uORF44p (protein derived from uORF44, an upstream ORF in the mRNA of ARHGEF9) (other, not shown: small tags and cut ends)
chain: MDSLTEQRLTSPNLPAPHLEHYSVLHCTMTLDVQTVVVFAVIVVLLLVNVILMFFLGTR
notes: Expressed from a pcDNA3 FLAG vector in HEK 293 T cells; also called uORF44 protein; mental activity-related protein
binds: all assays above
